Data on 1 protein can be found in paper PMC12051055, “Spectroscopy and crystallography define carotenoid oxygenases as a new subclass of mononuclear non-heme Fe^II enzymes” (The Journal of Biological Chemistry, 2025).

Substrate in the data set: CC=Cc1ccc(O)c(OC)c1
Kind of data set: steady-state kinetics of cleavage to vanillin by purified enzyme (apparent Km). Type of data set: biochemical, Neurospora crassa. As to conditions: Fe(II). An excerpt: steady-state kinetics of cleavage to vanillin by purified enzyme (apparent Km) on CAO1 (Neurospora crassa carotenoid oxygenase 1) | wildtype and T151V steady-state kinetics toward isoeugenol

B1: CAO1 (Neurospora crassa carotenoid oxygenase 1) (Neurospora crassa OR74A) (protein)
chain: MAEYVFSDAPKDSHGNGVKDAVPGKQPEELPPAPRYFQGENTAGFMRPVRFEGDITNLEVVGEIPKSIEGTFYRVMPEPHLPSFIPNDPWFNGDGNISGFYFKDGHVDLKQRYVRTEKFVREAEARRSLLGKYRNRYTDLVEFKIRSTANTNIVYWRGQLLALKEDSPPYAMDPETLETFGVYDFDGQLPSLTFTAHPKFDPVTREMVCFGYEAKGDGTRDICYYSFGPDGKIAETVWLVSPVCGMIHDFAVTENFVIFPIIPLVCDVERMKQGGDHWQWDYSIPMYIGVLPRRGAQGSDVKWFEAPHGFAGHVANAFEDDKGHIQLQMAYAKDNVFFWWPDANGKGPRPGEVEAHFANFVLDYQSDKLPLAEPTYLVDDDMEFPRIDDRVATRKHKHTFFCIFDRKPGVTDFEFVMPRAGGGAPMSNGLAHLNHETGDIQRYLPGPRKLTGECIFIPRNSEAAEGDGYVMVLLANYEDMCSELAVLDTKDLTNEVALIKLPVRLRPGLHGNWVDKSDVDGHPAPL
In general, Km refers to the substrate concentration at which the rate is half of its maximum. As to B1, the Km was 86.26 ± 13.49 µM.
